This note sets out measurements from the supplement of paper PMC11246515.

This series in a line: total protein half-life in vivo (active degradation + dilution); higher = more stable protein.
Where [1] appears, read: E. coli NCM3722 delta-hslV, growth: N-lim chemostat, doubling time 6 h.
[2] abbreviates: E. coli NCM3722 delta-smpB, growth: N-lim chemostat, doubling time 6 h.
Where [3] appears, read: wild type E. coli NCM3722, growth: C-lim chemostat, doubling time 6 h.
The mark [4] stands for this setting: wild type E. coli NCM3722, growth: C-lim chemostat, doubling time 12 h.
The mark [5] stands for this setting: wild type E. coli NCM3722, growth: N-lim chemostat, doubling time 6 h.
Setting [6] is: wild type E. coli NCM3722, growth: P-lim chemostat, doubling time 6 h.
Setting [7] is: wild type E. coli NCM3722, growth: P-lim chemostat, doubling time 12 h.
Where [8] appears, read: E. coli NCM3722 delta-lon, growth: N-lim chemostat, doubling time 6 h.
Setting [9] is: wild type E. coli NCM3722, growth: C-lim chemostat, doubling time 3 h.
Setting [10] is: wild type E. coli NCM3722, growth: N-lim chemostat, doubling time 12 h.
[11] abbreviates: E. coli NCM3722 delta-clpP delta-lon delta-hslV, growth: N-lim chemostat, doubling time 6 h.
[12] abbreviates: E. coli NCM3722 delta-clpP, growth: N-lim chemostat, doubling time 6 h.

± gives the standard deviation of the averaged measurements.

As to “MKTSLFKSLYFQVLTAIAIGILLGHFYPEIGEQMKPLGDGFVKLIKMIIAPVIFCTVVTGIAGMESMKAVGRTGAVALLYFEIVSTIALIIGLIIVNVVQPGAGMNVDPATLDAKAVAVYADQAKDQGIVAFIMDVIPASVIGAFASGNILQVLLFAVLFGFALHRLGSKGQLIFNVIESFSQVIFGIINMIMRLAPIGAFGAMAFTIGKYGVGTLVQLGQLIICFYITCILFVVLVLGSIAKATGFSIFKFIRYIREELLIVLGTSSSESALPRMLDKMEKLGCRKSVVGLVIPTGYSFNLDGTSIYLTMAAVFIAQATNSQMDIVHQITLLIVLLLSSKGAAGVTGSGFIVLAATLSAVGHLPVAGLALILGIDRFMSEARALTNLVGNGVATIVVAKWVKELDHKKLDDVLNNRAPDGKTHELSS [P0A830]”, the “total protein half-life in vivo” value is, setting by setting: under setting [1], 3.58 h; under setting [2], 4.23 h; under setting [3], 5.59 ± 0.43 h; under setting [4], 10.7 ± 0.59 h; under setting [5], 5.77 h; under setting [6], 5.05 h. In addition, the “total protein half-life in vivo” value under setting [7] came to 8.47 h.
In the case of “MAKNIPFKLILEKAKDYQADMTRFLRDMVAIPSESCDEKRVVHRIKEEMEKVGFDKVEIDPMGNVLGYIGHGPRLVAMDAHIDTVGIGNIKNWDFDPYEGMETDELIGGRGTSDQEGGMASMVYAGKIIKDLGLEDEYTLLVTGTVQEEDCDGLCWQYIIEQSGIRPEFVVSTEPTDCQVYRGQRGRMEIRIDVQGVSCHGSAPERGDNAIFKMGPILGELQELSQRLGYDEFLGKGTLTVSEIFFTSPSRCAVADSCAVSIDRRLTWGETWEGALDEIRALPAVQKANAVVSMYNYDRPSWTGLVYPTECYFPTWKVEEDHFTVKALVNAYEGLFGKAPVVDKWTFSTNGVSIMGRHGIPVIGFGPGKEPEAHAPNEKTWKSHLVTCAAMYAAIPLSWLATE”, the “total protein half-life in vivo” value runs as follows: under setting [1], 3.34 ± 0.23 h; under setting [8], more than 8 h; under setting [2], 3.6 h; under setting [9], 2.93 ± 0.037 h; under setting [3], 5.23 ± 1.1 h; under setting [4], 8.78 ± 0.98 h. The “total protein half-life in vivo” value under setting [5] is 3.7 ± 0.69 h, the “total protein half-life in vivo” value under setting [10] was found to be 6.26 ± 0.46 h, the “total protein half-life in vivo” value under setting [6] was determined as 5.23 h and the “total protein half-life in vivo” value under setting [7] was 9.14 ± 1.7 h.
Regarding “MKRHLNTCYRLVWNHMTGAFVVASELARARGKRGGVAVALSLAAVTSLPVLAADIVVHPGETVNGGTLANHDNQIVFGTTNGMTISTGLEYGPDNEANTGGQWVQDGGTANKTTVTSGGLQRVNPGGSVSDTVISAGGGQSLQGRAVNTTLNGGEQWMHEGAIATGTVINDKGWQVVKPGTVATDTVVNTGAEGGPDAENGDTGQFVRGDAVRTTINKNGRQIVRAEGTANTTVVYAGGDQTVHGHALDTTLNGGYQYVHNGGTASDTVVNSDGWQIVKNGGVAGNTTVNQKGRLQVDAGGTATNVTLKQGGALVTSTAATVTGINRLGAFSVVEGKADNVVLENGGRLDVLTGHTATNTRVDDGGTLDVRNGGTATTVSMGNGGVLLADSGAAVSGTRSDGKAFSIGGGQADALMLEKGSSFTLNAGDTATDTTVNGGLFTARGGTLAGTTTLNNGAILTLSGKTVNNDTLTIREGDALLQGGSLTGNGSVEKSGSGTLTVSNTTLTQKAVNLNEGTLTLNDSTVTTDVIAQRGTALKLTGSTVLNGAIDPTNVTLASGATWNIPDNATVQSVVDDLSHAGQIHFTSTRTGKFVPATLKVKNLNGQNGTISLRVRPDMAQNNADRLVIDGGRATGKTILNLVNAGNSASGLATSGKGIQVVEAINGATTEEGAFVQGNRLQAGAFNYSLNRDSDESWYLRSENAYRAEVPLYASMLTQAMDYDRIVAGSRSHQTGVNGENNSVRLSIQGGHLGHDNNGGIARGATPESSGSYGFVRLEGDLMRTEVAGMSVTAGVYGAAGHSSVDVKDDDGSRAGTVRDDAGSLGGYLNLVHTSSGLWADIVAQGTRHSMKASSDNNDFRARGWGWLGSLETGLPFSITDNLMLEPQLQYTWQGLSLDDGKDNAGYVKFGHGSAQHVRAGFRLGSHNDMTFGEGTSSRAPLRDSAKHSVSELPVNWWVQPSVIRTFSSRGDMRVGTSTAGSGMTFSPSQNGTSLDLQAGLEARVRENITLGVQAGYAHSVSGSSAEGYNGQATLNVTF”, the “total protein half-life in vivo” value under setting [11] is 5.867 ± 0.045 h; the “total protein half-life in vivo” value under setting [12] turned out to be 6.13 ± 0.57 h; the “total protein half-life in vivo” value under setting [1] came out at 4.9 ± 0.93 h; the “total protein half-life in vivo” value under setting [8] worked out at 5.37 ± 0.085 h; the “total protein half-life in vivo” value under setting [2] stood at 5.53 ± 0.46 h; the “total protein half-life in vivo” value under setting [9] worked out at 3.05 ± 0.062 h. Further, the “total protein half-life in vivo” value is, setting by setting: under setting [3], 4.43 ± 1.3 h; under setting [4], 4.46 ± 0.86 h; under setting [5], 5.92 ± 0.28 h; under setting [10], 9.16 ± 2 h; under setting [6], 5.77 ± 0.94 h; under setting [7], 11.9 ± 0.57 h.
“MSFDPTGYTLAHEHLHIDLSGFKNNVDCRLDQYAFICQEMNDLMTRGVRNVIEMTNRYMGRNAQFMLDVMRETGINVVACTGYYQDAFFPEHVATRSVQELAQEMVDEIEQGIDGTELKAGIIAEIGTSEGKITPLEEKVFIAAALAHNQTGRPISTHTSFSTMGLEQLALLQAHGVDLSRVTVGHCDLKDNLDNILKMIDLGAYVQFDTIGKNSYYPDEKRIAMLHALRDRGLLNRVMLSMDITRRSHLKANGGYGYDYLLTTFIPQLRQSGFSQADVDVMLRENPSQFFQ”: the “total protein half-life in vivo” value under setting [11] turned out to be 4.42 h; the “total protein half-life in vivo” value under setting [8] is 6.12 h; the “total protein half-life in vivo” value under setting [2] worked out at 3.08 ± 0.51 h; the “total protein half-life in vivo” value under setting [4] turned out to be 9.94 h; the “total protein half-life in vivo” value under setting [5] was 4.97 h; the “total protein half-life in vivo” value under setting [7] amounted to 15.1 h.
With “MSHYHEQFLKQNPLAVLGVLRDLHKAAIPLRLSWNGGQLISKLLAITPDKLVLDFGSQAEDNIAVLKAQHITITAETQGAKVEFTVEQLQQSEYLQLPAFITVPPPTLWFVQRRRYFRISAPLHPPYFCQTKLADNSTLRFRLYDLSLGGMGALLETAKPAELQEGMRFAQIEVNMGQWGVFHFDAQLISISERKVIDGKNETITTPRLSFRFLNVSPTVERQLQRIIFSLEREAREKADKVRD”, the “total protein half-life in vivo” value was 5.94 ± 0.77 h under setting [11]; more than 8 h under setting [2]; 1.21 ± 0.24 h under setting [9]; 1.87 ± 0.3 h under setting [3]; 2.88 ± 0.52 h under setting [4].
For the sequence “MTQDELKKAVGWAALQYVQPGTIVGVGTGSTAAHFIDALGTMKGQIEGAVSSSDASTEKLKSLGIHVFDLNEVDSLGIYVDGADEINGHMQMIKGGGAALTREKIIASVAEKFICIADASKQVDILGKFPLPVEVIPMARSAVARQLVKLGGRPEYRQGVVTDNGNVILDVHGMEILDPIAMENAINAIPGVVTVGLFANRGADVALIGTPDGVKTIVK [P0A7Z0]”, the “total protein half-life in vivo” value under setting [11] was 4.63 ± 0.6 h; the “total protein half-life in vivo” value under setting [12] was 3.964 ± 0.033 h; the “total protein half-life in vivo” value under setting [1] worked out at 4.16 ± 0.58 h; the “total protein half-life in vivo” value under setting [8] came to 4.46 ± 0.19 h; the “total protein half-life in vivo” value under setting [2] was 4.21 ± 0.072 h; the “total protein half-life in vivo” value under setting [9] was determined as 2.89 ± 0.12 h. The “total protein half-life in vivo” value is, setting by setting: under setting [3], 5.36 ± 0.4 h; under setting [4], 9.4966 ± 0.0081 h; under setting [5], 4.01 ± 0.3 h; under setting [10], 6.79 ± 0.038 h; under setting [6], 5.1 ± 0.3 h; under setting [7], 11.6 ± 0.7 h.
“MLELNAKTTALVVIDLQEGILPFAGGPHTADEVVNRAGKLAAKFRASGQPVFLVRVGWSADYAEALKQPVDAPSPAKVLPENWWQHPAALGATDSDIEIIKRQWGAFYGTDLELQLRRRGIDTIVLCGISTNIGVESTARNAWELGFNLVIAEDACSAASAEQHNNSINHIYPRIARVRSVEEILNAL [P0ADI7]”: the “total protein half-life in vivo” value by setting is: under setting [11], 5.53 ± 0.15 h; under setting [12], 5.05 ± 0.3 h; under setting [1], 4.968 ± 0.024 h; under setting [2], 5.08 ± 0.54 h; under setting [9], 3.07 ± 0.33 h; under setting [3], 5.75 ± 0.29 h. In addition, the “total protein half-life in vivo” value under setting [4] worked out at 10.9 ± 0.94 h; the “total protein half-life in vivo” value under setting [5] came to 5.19 ± 0.59 h; the “total protein half-life in vivo” value under setting [10] was found to be 9.838 ± 0.087 h; the “total protein half-life in vivo” value under setting [6] was 5.81 ± 0.12 h; the “total protein half-life in vivo” value under setting [7] came to 12.7 ± 0.69 h.
As for “MPIQVLPPQLANQIAAGEVVERPASVVKELVENSLDAGATRIDIDIERGGAKLIRIRDNGCGIKKDELALALARHATSKIASLDDLEAIISLGFRGEALASISSVSRLTLTSRTAEQQEAWQAYAEGRDMNVTVKPAAHPVGTTLEVLDLFYNTPARRKFLRTEKTEFNHIDEIIRRIALARFDVTINLSHNGKIVRQYRAVPEGGQKERRLGAICGTAFLEQALAIEWQHGDLTLRGWVADPNHTTPALAEIQYCYVNGRMMRDRLINHAIRQACEDKLGADQQPAFVLYLEIDPHQVDVNVHPAKHEVRFHQSRLVHDFIYQGVLSVLQQQLETPLPLDDEPQPAPRSIPENRVAAGRNHFAEPAAREPVAPRYTPAPASGSRPAAPWPNAQPGYQKQQGEVYRQLLQTPAPMQKLKAPEPQEPALAANSQSFGRVLTIVHSDCALLERDGNISLLSLPVAERWLRQAQLTPGEAPVCAQPLLIPLRLKVSAEEKSALEKAQSALAELGIDFQSDAQHVTIRAVPLPLRQQNLQILIPELIGYLAKQSVFEPGNIAQWIARNLMSEHAQWSMAQAITLLADVERLCPQLVKTPPGGLLQSVDLHPAIKALKDE”, the “total protein half-life in vivo” value amounted to 5.64 ± 0.16 h under setting [11]; 5.376 ± 0.017 h under setting [12]; 4.58 ± 0.16 h under setting [1]; 5.29 ± 0.063 h under setting [8]; 4.59 ± 0.048 h under setting [2]; 3.002 ± 0.009 h under setting [9]. The “total protein half-life in vivo” value under setting [3] came out at 5.614 ± 0.0069 h; the “total protein half-life in vivo” value under setting [4] was 9.34 ± 0.55 h; the “total protein half-life in vivo” value under setting [5] was found to be 4.635 ± 0.043 h; the “total protein half-life in vivo” value under setting [10] came to 8.197 ± 0.054 h; the “total protein half-life in vivo” value under setting [6] stood at 5.43 ± 0.11 h; the “total protein half-life in vivo” value under setting [7] was 10.2 ± 0.69 h.
Consider “MLKVEMLSTGDEVLHGQIVDTNAAWLADFFFHQGLPLSRRNTVGDNLDDLVTILRERSQHADVLIVNGGLGPTSDDLSALAAATAKGEGLVLHEAWLKEMERYFHERGRVMAPSNRKQAELPASAEFINNPVGTACGFAVQLNRCLMFFTPGVPSEFKVMVEHEILPRLRERFSLPQPPVCLRLTTFGRSESDLAQSLDTLQLPPGVTMGYRSSMPIIELKLTGPASEQQAMEKLWLDVKRVAGQSVIFEGTEGLPAQISRELQNRQFSLTLSEQFTGGLLALQLSRAGAPLLACEVVPSQEETLAQTAHWITERRANHFAGLALAVSGFENEHLNFALATPDGTFALRVRFSTTRYSLAIRQEVCAMMALNMLRRWLNGQDIASEHGWIEVVESMTLSV”, for which the “total protein half-life in vivo” value reads like this: under setting [11], 4.98 ± 0.18 h; under setting [12], 4.36 ± 0.044 h; under setting [1], 4.01 ± 0.17 h; under setting [8], 4.79 ± 0.35 h; under setting [2], 4.32 ± 0.093 h; under setting [9], 3.098 ± 0.027 h. The “total protein half-life in vivo” value runs as follows: under setting [3], 5.27 ± 0.91 h; under setting [4], 9.19 ± 2.1 h; under setting [5], 3.94 ± 0.2 h; under setting [10], 6.9 ± 0.57 h; under setting [6], 6.25 ± 0.51 h; under setting [7], 11.2 ± 0.81 h.
